According to patent US20140274782A1, “AFFINITY REAGENTS AND METHODS FOR DETECTION, PURIFICATION, AND PROTEOMIC ANALYSIS OF METHYLATED PROTEINS” (The Board of Trustees of the Leland Stanford Junior …, priority 2013, published 2014):

T1: G9a and GLP (Homo sapiens, UniProt Q96KQ7+Q9H9B1)
T1 sequence (Q96KQ7 2-1210 limits assumed): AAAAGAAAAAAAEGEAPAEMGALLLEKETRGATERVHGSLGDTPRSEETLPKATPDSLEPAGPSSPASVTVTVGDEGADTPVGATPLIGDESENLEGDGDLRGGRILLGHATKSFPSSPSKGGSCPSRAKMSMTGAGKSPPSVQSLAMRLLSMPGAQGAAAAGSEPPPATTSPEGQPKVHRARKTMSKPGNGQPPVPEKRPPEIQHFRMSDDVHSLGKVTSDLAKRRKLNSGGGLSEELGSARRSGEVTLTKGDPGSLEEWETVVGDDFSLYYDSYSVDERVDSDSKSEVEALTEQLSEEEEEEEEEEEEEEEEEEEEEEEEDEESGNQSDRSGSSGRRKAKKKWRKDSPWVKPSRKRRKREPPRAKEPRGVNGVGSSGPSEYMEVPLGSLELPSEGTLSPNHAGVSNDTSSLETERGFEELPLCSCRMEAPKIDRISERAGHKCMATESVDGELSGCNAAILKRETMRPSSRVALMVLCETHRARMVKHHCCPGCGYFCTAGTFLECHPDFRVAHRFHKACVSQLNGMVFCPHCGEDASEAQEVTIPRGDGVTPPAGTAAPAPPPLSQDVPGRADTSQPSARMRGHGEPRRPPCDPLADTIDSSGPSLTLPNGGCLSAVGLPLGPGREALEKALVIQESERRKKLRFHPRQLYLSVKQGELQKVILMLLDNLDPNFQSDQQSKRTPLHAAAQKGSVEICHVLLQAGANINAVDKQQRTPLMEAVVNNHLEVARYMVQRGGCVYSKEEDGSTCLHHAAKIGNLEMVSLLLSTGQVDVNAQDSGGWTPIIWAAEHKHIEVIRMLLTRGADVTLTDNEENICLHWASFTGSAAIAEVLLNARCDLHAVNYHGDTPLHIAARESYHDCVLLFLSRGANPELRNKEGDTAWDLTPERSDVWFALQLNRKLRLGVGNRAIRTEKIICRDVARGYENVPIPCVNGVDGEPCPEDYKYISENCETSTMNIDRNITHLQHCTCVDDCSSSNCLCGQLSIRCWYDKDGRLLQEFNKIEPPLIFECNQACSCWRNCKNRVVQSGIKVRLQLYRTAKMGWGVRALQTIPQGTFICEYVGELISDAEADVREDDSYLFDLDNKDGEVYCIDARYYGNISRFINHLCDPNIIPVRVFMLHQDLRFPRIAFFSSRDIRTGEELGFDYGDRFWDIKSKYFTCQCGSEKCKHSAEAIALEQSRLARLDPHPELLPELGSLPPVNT
T1 sequence (Q9H9B1 2-1298 limits assumed): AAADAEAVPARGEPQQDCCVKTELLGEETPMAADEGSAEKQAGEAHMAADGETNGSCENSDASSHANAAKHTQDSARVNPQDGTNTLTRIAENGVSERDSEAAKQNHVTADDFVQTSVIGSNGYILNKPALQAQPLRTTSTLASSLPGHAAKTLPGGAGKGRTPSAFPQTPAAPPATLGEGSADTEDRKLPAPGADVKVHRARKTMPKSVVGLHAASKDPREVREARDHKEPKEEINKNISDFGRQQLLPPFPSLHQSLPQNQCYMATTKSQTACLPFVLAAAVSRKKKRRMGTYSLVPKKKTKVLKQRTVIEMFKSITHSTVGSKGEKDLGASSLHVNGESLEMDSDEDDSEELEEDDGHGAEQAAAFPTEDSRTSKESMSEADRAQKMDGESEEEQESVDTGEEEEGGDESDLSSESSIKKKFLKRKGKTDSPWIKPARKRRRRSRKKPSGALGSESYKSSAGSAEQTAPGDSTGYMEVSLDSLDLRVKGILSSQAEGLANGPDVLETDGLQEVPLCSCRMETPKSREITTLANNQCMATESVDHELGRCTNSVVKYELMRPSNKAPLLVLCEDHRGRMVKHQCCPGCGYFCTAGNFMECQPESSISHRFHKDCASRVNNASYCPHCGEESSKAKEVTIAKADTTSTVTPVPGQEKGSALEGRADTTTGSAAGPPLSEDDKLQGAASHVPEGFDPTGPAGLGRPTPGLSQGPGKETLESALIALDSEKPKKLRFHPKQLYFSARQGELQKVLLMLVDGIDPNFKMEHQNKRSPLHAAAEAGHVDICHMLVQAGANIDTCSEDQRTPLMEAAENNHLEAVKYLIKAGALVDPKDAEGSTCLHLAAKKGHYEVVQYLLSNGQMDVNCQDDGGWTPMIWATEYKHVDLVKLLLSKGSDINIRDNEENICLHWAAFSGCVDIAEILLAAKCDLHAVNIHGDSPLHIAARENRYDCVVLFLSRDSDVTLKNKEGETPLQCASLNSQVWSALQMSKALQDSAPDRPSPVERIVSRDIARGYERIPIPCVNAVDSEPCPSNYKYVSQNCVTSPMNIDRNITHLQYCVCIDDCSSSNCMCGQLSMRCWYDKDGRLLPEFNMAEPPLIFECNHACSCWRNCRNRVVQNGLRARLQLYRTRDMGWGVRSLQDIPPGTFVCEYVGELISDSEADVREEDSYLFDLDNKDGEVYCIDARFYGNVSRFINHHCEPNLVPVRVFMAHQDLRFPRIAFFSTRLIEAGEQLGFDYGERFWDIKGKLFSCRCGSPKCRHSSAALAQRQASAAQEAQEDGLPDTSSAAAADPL


What was measured:
[1] = target: T1, G9a and GLP; test: Triple SILAC pull-down after UNC0638 treatment of 293T cells, DMSO/UNC0638 ratio of protein captured by 3×MBT; assay type: cell-based; parameters: endogenous in cells; host or cells: HEK 293T; conditions: all values in log base 2; for Relative to UNC0638 UNC Heavy / Relative to UNC0638 UNC Light: SILAC ratio DMSO relative to UNC0638, pull-down with 3xMBT; for Relative to UNC0638 UNC Heavy: UNC0638 in heavy SILAC media; for Relative to UNC0638 UNC Light: UNC0638 in light SILAC media; for Relative to UNC0638 Average: average of UNC Light and UNC Heavy experiments;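 on all read-outs here: mass spectrometry (Q-Exactive) SILAC quantitation, DMSO/UNC0638 ratio computed after subtracting 3×MBTD355N mutant pull-down background, only proteins with at least twofold 3×MBT over mutant signal considered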
[2] = system: 3×MBT domain of L3MBTL1; test: Triple SILAC pull-down, 3xMBT/3xMBTD355N ratio (cytoplasmic, nuclear and chromatin fractions of 293T cells); assay type: binding, human; conditions: SILAC ratio 3xMBT vs 3xMBTD355N pull-down, 293T cells, all values in log base 2; for 3xMBT/D355N UNC Heavy: experiment with UNC0638 in heavy SILAC media; for 3xMBT/D355N UNC Light: experiment with UNC0638 in light SILAC media;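 on all read-outs here: proteins quantified with MaxQuant, requiring at least two unique peptides and quantification in both label directions, normalized to the mean of proteins from a digested loading control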

Row | Relative to UNC0638 UNC Heavy [1] | Relative to UNC0638 UNC Light [1] | Relative to UNC0638 Average [1] | Molecule | 3xMBT/D355N UNC Heavy [2] | 3xMBT/D355N UNC Light [2]
1 | −0.19 log base 2 | 0.21 log base 2 | 0.01 log base 2 | IARS (protein, UniProt P41252 1-1262, looked up) Isoleucine--tRNA ligase, …: MLQQVPENINFPAEEEKILEFWTEFNCFQECLKQSKHKPKFTFYDGPPFATGLPHYGHILAGTIKDIVTRYAHQSGFHVDRRFGWDCHGLPVEYEIDKTLGIRGPEDVAKMGITEYNNQCRAIVMRYSAEWKSTVSRLGRWIDFDNDYKTLYPQFMESVWWVFKQLYDKGLVYRGVKVMPFSTACNTPLSNFESHQNYKDVQDPSVFVTFPLEEDETVSLVAWTTTPWTLPSNLAVCVNPEMQYVKIKDVARGRLLILMEARLSALYKLESDYEILERFPGAYLKGKKYRPLFDYFLKCKENGAFTVLVDNYVKEEEGTGVVHQAPYFGAEDYRVCMDFNIIRKDSLPVCPVDASGCFTTEVTDFAGQYVKDADKSIIRTLKEQGRLLVATTFTHSYPFCWRSDTPLIYKAVPSWFVRVENMVDQLLRNNDLCYWVPELVREKRFGNWLKDARDWTISRNRYWGTPIPLWVSDDFEEVVCIGSVAELEELSGAKISDLHRESVDHLTIPSRCGKGSLHRISEVFDCWFESGSMPYAQVHYPFENKREFEDAFPADFIAEGIDQTRGWFYTLLVLATALFGQPPFKNVIVNGLVLASDGQKMSKRKKNYPDPVSIIQKYGADALRLYLINSPVVRAENLRFKEEGVRDVLKDVLLPWYNAYRFLIQNVLRLQKEEEIEFLYNENTVRESPNITDRWILSFMQSLIGFFETEMAAYRLYTVVPRLVKFVDILTNWYVRMNRRRLKGENGMEDCVMALETLFSVLLSLCRLMAPYTPFLTELMYQNLKVLIDPVSVQDKDTLSIHYLMLPRVREELIDKKTESAVSQMQSVIELGRVIRDRKTIPIKYPLKEIVVIHQDPEALKDIKSLEKYIIEELNVRKVTLSTDKNKYGIRLRAEPDHMVLGKRLKGAFKAVMTSIKQLSSEELEQFQKTGTIVVEGHELHDEDIRLMYTFDQATGGTAQFEAHSDAQALVLLDVTPDQSMVDEGMAREVINRIQKLRKKCNLVPTDEITVYYKAKSEGTYLNSVIESHTEFIFTTIKAPLKPYPVSPSDKVLIQEKTQLKGSELEITLTRGSSLPGPACAYVNLNICANGSEQGGVLLLENPKGDNRLDLLKLKSVVTSIFGVKNTELAVFHDETEIQNQTDLLSLSGKTLCVTAGSAPSLINSSSTLLCQYINLQLLNAKPQECLMGTVGTLLLENPLGQNGLTHQGLLYEAAKVFGLRSRKLKLFLNETQTQEITEDIPVKTLNMKTVYVSVLPTTADF | 2.10 log base 2 | 2.25 log base 2
2 | 0.19 log base 2 | −0.24 log base 2 | −0.02 log base 2 | DHX36 (protein, UniProt Q9H2U1 1-1008, looked up) ATP-dependent DNA/RNA …: MSYDYHQNWGRDGGPRSSGGGYGGGPAGGHGGNRGSGGGGGGGGGGRGGRGRHPGHLKGREIGMWYAKKQGQKNKEAERQERAVVHMDERREEQIVQLLNSVQAKNDKESEAQISWFAPEDHGYGTEVSTKNTPCSENKLDIQEKKLINQEKKMFRIRNRSYIDRDSEYLLQENEPDGTLDQKLLEDLQKKKNDLRYIEMQHFREKLPSYGMQKELVNLIDNHQVTVISGETGCGKTTQVTQFILDNYIERGKGSACRIVCTQPRRISAISVAERVAAERAESCGSGNSTGYQIRLQSRLPRKQGSILYCTTGIILQWLQSDPYLSSVSHIVLDEIHERNLQSDVLMTVVKDLLNFRSDLKVILMSATLNAEKFSEYFGNCPMIHIPGFTFPVVEYLLEDVIEKIRYVPEQKEHRSQFKRGFMQGHVNRQEKEEKEAIYKERWPDYVRELRRRYSASTVDVIEMMEDDKVDLNLIVALIRYIVLEEEDGAILVFLPGWDNISTLHDLLMSQVMFKSDKFLIIPLHSLMPTVNQTQVFKRTPPGVRKIVIATNIAETSITIDDVVYVIDGGKIKETHFDTQNNISTMSAEWVSKANAKQRKGRAGRVQPGHCYHLYNGLRASLLDDYQLPEILRTPLEELCLQIKILRLGGIAYFLSRLMDPPSNEAVLLSIRHLMELNALDKQEELTPLGVHLARLPVEPHIGKMILFGALFCCLDPVLTIAASLSFKDPFVIPLGKEKIADARRKELAKDTRSDHLTVVNAFEGWEEARRRGFRYEKDYCWEYFLSSNTLQMLHNMKGQFAEHLLGAGFVSSRNPKDPESNINSDNEKIIKAVICAGLYPKVAKIRLNLGKKRKMVKVYTKTDGLVAVHPKSVNVEQTDFHYNWLIYHLKMRTSSIYLYDCTEVSPYCLLFFGGDISIQKDNDQETIAVDEWIVFQSPARIAHLVKELRKELDILLQEKIESPHPVDWNDTKSRDCAVLSAIIDLIKTQEKATPRNFPPRFQDGYYS | 1.95 log base 2 | 2.83 log base 2
3 | 0.03 log base 2 | −0.03 log base 2 | 0.00 log base 2 | RBM39 (protein, UniProt Q14498 2-530, looked up) RNA-binding protein 39: ADDIDIEAMLEAPYKKDENKLSSANGHEERSKKRKKSKSRSRSHERKRSKSKERKRSRDRERKKSKSRERKRSRSKERRRSRSRSRDRRFRGRYRSPYSGPKFNSAIRGKIGLPHSIKLSRRRSRSKSPFRKDKSPVREPIDNLTPEERDARTVFCMQLAARIRPRDLEEFFSTVGKVRDVRMISDRNSRRSKGIAYVEFVDVSSVPLAIGLTGQRVLGVPIIVQASQAEKNRAAAMANNLQKGSAGPMRLYVGSLHFNITEDMLRGIFEPFGRIESIQLMMDSETGRSKGYGFITFSDSECAKKALEQLNGFELAGRPMKVGHVTERTDASSASSFLDSDELERTGIDLGTTGRLQLMARLAEGTGLQIPPAAQQALQMSGSLAFGAVAEFSFVIDLQTRLSQQTEASALAAAASVQPLATQCFQLSNMFNPQTEEEVGWDTEIKDDVIEECNKHGGVIHIYVDKNSAQGNVYVKCPSIAAAIAAVNALHGRWFAGKMITAAYVPLPTYHNLFPDSMTATQLLVPSRR | 2.04 log base 2 | 0.93 log base 2
